Test results published in patent US20100061978A1 (UNIVERSITY OF BRITISH COLUMBIA, published 2010).

Target: T1, c-kit, endogenous in FDC-P1 cells (mouse, UniProt P05532 25-979)
T1 construct: whole, on cells
Assay: co-immunoprecipitation with anti-CXCR4 from FDC-P1 whole cell lysates

T1 sequence (P05532 25-979): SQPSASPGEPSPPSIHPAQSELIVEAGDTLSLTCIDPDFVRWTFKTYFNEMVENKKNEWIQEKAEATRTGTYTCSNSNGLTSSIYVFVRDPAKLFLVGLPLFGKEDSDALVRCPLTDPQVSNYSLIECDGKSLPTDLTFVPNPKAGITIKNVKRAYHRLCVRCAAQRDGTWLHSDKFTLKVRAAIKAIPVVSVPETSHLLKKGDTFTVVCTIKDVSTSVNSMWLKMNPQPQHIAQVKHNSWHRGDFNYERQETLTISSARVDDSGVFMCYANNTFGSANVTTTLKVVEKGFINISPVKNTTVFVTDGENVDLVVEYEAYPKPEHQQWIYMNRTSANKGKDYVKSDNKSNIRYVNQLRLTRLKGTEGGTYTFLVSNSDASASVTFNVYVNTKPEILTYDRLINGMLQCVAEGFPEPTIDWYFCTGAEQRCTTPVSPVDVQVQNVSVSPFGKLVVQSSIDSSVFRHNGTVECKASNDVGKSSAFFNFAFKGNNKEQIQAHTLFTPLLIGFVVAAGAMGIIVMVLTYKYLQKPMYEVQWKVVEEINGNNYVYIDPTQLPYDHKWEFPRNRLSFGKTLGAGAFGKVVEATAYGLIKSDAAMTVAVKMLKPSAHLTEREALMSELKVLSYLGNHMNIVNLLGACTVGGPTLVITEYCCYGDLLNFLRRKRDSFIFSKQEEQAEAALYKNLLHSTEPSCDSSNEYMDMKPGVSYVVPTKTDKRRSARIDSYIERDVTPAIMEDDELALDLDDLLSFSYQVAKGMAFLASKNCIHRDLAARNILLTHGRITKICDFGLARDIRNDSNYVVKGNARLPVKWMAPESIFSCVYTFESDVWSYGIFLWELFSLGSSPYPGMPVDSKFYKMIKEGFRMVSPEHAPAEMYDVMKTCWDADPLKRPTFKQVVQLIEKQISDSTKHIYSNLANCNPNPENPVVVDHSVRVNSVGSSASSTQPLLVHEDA

- binding result: no binding
B1: CXCR4, endogenous in FDC-P1 cells (receptor, mouse, UniProt P70658 1-359, looked up)
chain: MEPISVSIYTSDNYSEEVGSGDYDSNKEPCFRDENVHFNRIFLPTIYFIIFLTGIVGNGLVILVMGYQKKLRSMTDKYRLHLSVADLLFVITLPFWAVDAMADWYFGKFLCKAVHIIYTVNLYSSVLILAFISLDRYLAIVHATNSQRPRKLLAEKAVYVGVWIPALLLTIPDFIFADVSQGDISQGDDRYICDRLYPDSLWMVVFQFQHIMVGLILPGIVILSCYCIIISKLSHSKGHQKRKALKTTVILILAFFACWLPYYVGISIDSFILLGVIKQGCDFESIVHKWISITEALAFFHCCLNPILYAFLGAKFKSSAQHALNSMSRGSSLKILSKGKRGGHSSVSTESESSSFHSS
notes: whole, on cells; Immunoprecipitated with anti-CXCR4 from whole cell lysates in the co-immunoprecipitation
